Test results from patent US20240317826A1 (ALBERT EINSTEIN COLLEGE OF MEDICINE, published 2024).

Biological target: T1, GST-CTD (C-terminal domain of HIV-1 integrase, aa 201-288, GST fusion) (HIV-1 (Hx3B), UniProt P04585 1348-1435)
T1 construct: domain: C-terminal (IN-CTD, aa 201-288 of integrase); also called IN-CTD; pGST-IN-CTD(aa 201-288); not shown: GST tag from pGEX3xPL vector
Assay: Alpha proximity competition, low salt: increasing INI1183-304 added to GST-CTD + biotinylated TAR RNA; displaced competitor is TAR RNA

B1: His6-SUMO-INI1183-304 (other)
chain: PEVLVPIRLDMEIDGQKLRDAFTWNMNEKLMTPEMFSEILCDDLDLNPLTFVPAIASAIRQQIESYPTDSILEDQSDQRVIIKLNIHVGNISLVDQFEWDMSEKENSPEKFALKLCSELGLG
notes: range 183-304; also called 6His-SUMO-INI1183-304; Rpt1 (cartoon label); not shown: His6-SUMO (h6-smt3) tag from pET28a-h6-smt3
With B1 the IC50 was about 5 nM.
